Assay results taken from the nanobody polyreactivity screen of Harvey et al. (2022).

Experiment: yeast display, Sf9 membrane polyspecificity reagent, FACS + sequencing; frameworks hold sequencing errors
Outline: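 Using colony PCR, genes from sorted yeast display clones were amplified, then sequenced on MiSeq at 2 × 250 and filtered by CDR length. The clones had been stained with 10% biotinylated, detergent-solubilized Sf9 membrane reagent for 1 hour at 4 °C and sorted by FACS into low and high (top ~1%) gates on anti-HA and streptavidin fluorescence. Polyreactivity labels come from the gate of origin.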

| Sequence | polyreactivity (PSR sort gate) |
| --- | --- |
| QVQLEESWGGLVQAGGSLRLSCAASGSIYWEYAMGWYTPAPGKEREFVATISARGGRTYYADSVKGRFTISRDNAKNTVYLQMNSLKPEDTAVYYCANVGVFHLRDNYRFDFWGQGTQVTVSS | low polyreactivity |
| QVQLEETGGGLLQAGGSLRLSSAASGRTFVNYAMGWYRQAPGKEREFVAAIDRRSGSTYYADSVKGRFTISRDNAKNTVYLQMTSLKPEDTAVDYCAASPYIYDSWGQGTQVTVSS | low polyreactivity |
| QVQLGDSGGGLVHAGGSLSLSCAASGSTFAYYSMGWYRQAPGKERELVAGFTWTGGSTYYADSVKGRFTISRDNAKNTVYFQKNSLKPEDTAVYFCAVTYPYGYEYDHWGQGSQVTVSS | low polyreactivity |
| QVQLGDSGGGLVQAGGSLRLSCAASGFSIFTYAMGWYRQAPGKERELVAAITTGGSTNYADSVKGRFTISRDNAKNTVYLKMNSLKPEDTALYYCAALRVSVILLVRLDYWGQGTQVTVSS | low polyreactivity |
| QVQLGDSGGGLVQAGGSLRLSCAASGRIFGVYAMGWYRQAPGKERELVAAISRNGGSTYYADSVKGRFTISRDNAKNTVYLQMNSLKPEDTAVYYCATGGGVEAAGAYWGQGTQVTVSS | low polyreactivity |
| QVQLGESGAGLVQAGGSLRLSCAASGRTFYRYAMGWYRQAPGKERELVAAISSSGGRTYYADSVKGRFTISRDNAKNTVYLQMNSLKPEDTAVYYCAKSGYHSLVLWIEDYWGQGTQVTVSS | low polyreactivity |
| QVQLGESGAGLVQAGGSLRLSCAASGRTLRKYAMGLYTQAPGKERELVAAITTSGGSKYYADSVKGRFTISRDNAKNTVYLPMNSLKPEDTAVYYCAKCGYSGYHSSYDYWGQGTQVTVSS | high polyreactivity |
| QVQLGESGGGFFKAGASLRVICAASGRTFRRNAKGWYRQSPGTERELVAAITCGGSTNYADSVKGRFTISRDNENNTVYLQMNSLKPEDTAVYYCNADSVWGWYTYDYWGQGTQVTVSS | high polyreactivity |
| QVQLGESGGGIVQAGGSLRLSCAASGFIIRYNAMGWYRQAPGKERQFVAAISWGGGRTYYADSVKGRFTISRDNAKNTVYLQMNSLKPEDTAVYFCAAVSPHNRYGYKYDYWGQGTQVTVSS | high polyreactivity |
| QVQLGESGGGLVQAGGSLGLSCAASGGTLRVNTMGWYRQAPGKERELVAAISTRSGRTYYADSVKGRFTISRDNAKYTVYLQMNSLKPEDTAVYYCAATLYRRRSAFDGDWGQGTQVTVSS | high polyreactivity |
| QVQLGESGGGLVQAGGSLRLICAASGSIFDVNAMGWYRQAPGKERELVAAISDSGGSTYYADSVKGRFTISRDNAKNTVYLQMNSLKPEDTAVYYCNADWSWYNYDDFDYWGQGTQVTVSS | low polyreactivity |
| QVQLGESGGGLVQAGGSLRLICAASGSTFYYNAMGWSRQAPGKEWELVAAITYSGGDTYYADSVKGRFTMSRDNAKNTVYLQMNSLKPEDTAVYYCAAEYYWYNVYTGHLWYDYWGQGTQVTVSS | high polyreactivity |
| QVQLGESGGGLVQAGGSLRLRCAASGYILWNAMGWYRQAPGKERELVAAIRFRGGSTSYADSVKGRFTISRDNAKNTVYLQMNSLKPEDTAVYYCNARWWVIRPYQRHDYWGQGTQVTVSS | low polyreactivity |
| QVQLGESGGGLVQAGGSLRLSCAASGFIFCYYAMGWYRQAPVKERELVAAITSGGRTYYSESVKGRFTISLDNAKNTFYLQMNSMKPEDTSVYYCNVVLRSVVSGDYWGQGTQVTVSS | high polyreactivity |
| QVQLGESGGGLVQAGGSLRLSCAASGFIFEHYARGWYRQAPGTDTEFVARISWGGGSTYYADSVKGRFTISRDNAKNTVYLQMNSLKPEDTAVYYCHALEGVYFGYYPSDYWGQGTQVTVAS | low polyreactivity |
| QVQLGESGGGLVQAGGSLRLSCAASGFSFWYYPMGWYRQAPGKERELVASIRYSGDSTSYADSVKGRFTISRDNAKNNVYFQMNSLKAEDTEVYYSAAVRYWYASYYTYEYWGQGTQVSVSS | high polyreactivity |
| QVQLGESGGGLVQAGGSLRLSCAASGFTFYGNAMGWYRQAPGKERELVAAITYSGGRTYYADSVKGRFTISRDNAKNTVYLQMNSLKPEDTAVYYCARRRGYGQYDYWGQGTQVTVSS | high polyreactivity |
| QVQLGESGGGLVQAGGSLRLSCAASGFTFYNYAMGWYRQAPGKERELVAAISTSGGSTYYADSVKGRFTISRDNAKNTVYLQMNSLKPEDTAVYYCAAQATAYSYAYYYWGQGTQVTVSS | low polyreactivity |
| QVQLGESGGGLVQAGGSLRLSCAASGIIFISYDMGWYRQAPWKERELVARINWDGGSTYYADSVKGRFTISRDNAKNTVYLQMNSLKPEDTAVYYCAAGFVGTNYPLQGFSYEYWGQGTQVTVSS | low polyreactivity |
| QVQLGESGGGLVQAGGSLRLSCAASGITFTHYVMGLYRQAPGKERELVAAISTSGGRTYYADSVKGRFTISRDHAKNSVYLQMNSLKPEDTAVYYCAAVSRAPGLRYDYWGQGTQVTVSS | high polyreactivity |
| QVQLGESGGGLVQAGGSLRLSCAASGLIFVWNDMGWYRQAPGKEGELVADISDGSTYADSVKGRFTISRDNAKNTVYVQMNRLQPEHTAVYYCNKDNHDVELPVEFEYWGQGTQVTVSS | high polyreactivity |
| QVQLGESGGGLVQAGGSLRLSCAASGNIFYRYAMGWYRQAPGKERELVAAITSDGSTYYADSVKGRFTISRDNAKNTVYLQMNSLKPEDTAVYYCAARRGTGSYSYRYPYGYDYWGQGTQVTVSS | low polyreactivity |

| Sequence | polyreactivity (PSR sort gate) |
| --- | --- |
| QVQLGESGGGLVQAGGSLRLSCAASGRIFGAYAMGWYRPAPGKERELVAAITSRGGNTYYADSVKGRFTISRDNAKKTAYLQLNSLKPQDTAVYYCAARHDKRRQYYVGQSAFDYGGQGTQVTVSS | low polyreactivity |
| QVQLGESGGGLVQAGGSLRLSCAASGRIFSKNAMGWYRQAPGKERELVASIRQSGSNTYADSVKGRFTISRVNAKNTVYVQMNSLKPEDTAVYNCAASYFPLNSGRKVGYWGQGTQVTVSS | low polyreactivity |
| QVQLGESGGGLVQAGGSLRLSCAASGRIFSYYAMGWYRQAPGKERELVATIDRSGDPTSYADSVKGRFTISRDNAKNTVYLQMNSLKPEDTAVYYCAATSKRARYDSWGHGTQVTVSS | high polyreactivity |
| QVQLGESGGGLVQAGGSLRLSCAASGRTFLKNALGWYRPAPGKERELVAAITSGGSTNYADSVKGRFTISRDNAKNTVYFQMNCLKPEDTAVYYCAAEYTYGSPYDYWGQGTQVTVSS | low polyreactivity |
| QVQLGESGGGLVQAGGSLRLSCAASGRTFWSYAMGWYREAAGKERELVAAITSSGGTTNDADSVKGRFTISRDNAKNTVYLQMNSLKPEDTAVYYCAAYSWYFGSRYDYWGQGTQVTVSS | low polyreactivity |
| QVQLGESGGGLVQAGGSLRLSCAASGRTFYTNARGWYRQAAGKARELAADISRGGTTYYADSVKGRFTISRDNAKNTVYLQMNSLKPQDTAVYYSAAEGHELTEGDSWGQGTQVTVSS | low polyreactivity |
| QVQLGESGGGLVQAGGSLRLSCAASGSIFAYYAMGWYRQAPGKERELVAGISGSGGSTYYADSVKGRFTISRDNAKNTVYLQMNSLKPEDTAVYYCAVDGRRNGDVRYNYWGQGTQVTVSS | high polyreactivity |
| QVQLGESGGGLVQAGGSLRLSCAASGSIFRGYAMGWYRQAPGKGRELVAAISWSGASTYYADSVKGRFTISLDNAKNTVYLQMNSLKPEDTAVYYCAAVQWTGYPFDYWGQGTQVTVSS | high polyreactivity |
| QVQLGESGGGLVQAGGSLRLSCAASGSIFRSYAMGWYRQAPGKERELVAAISWRGGRTYYADSVKGRFTISRDNAKNTVYLQMNSLKPEDTAVYYCAARNRAQQGTRDHDYWGQGTQVTLSS | high polyreactivity |
| QVQLGESGGGLVQAGGSLRLSCAASGSIFVRNAMGWYRQAPGKERELVAAINGRGTSTYYADSVKGRFTISRDNAKNTVYLQMNSLKPEDTAVYYCATSLTSPRRAYGYWGQGTQVTVSS | high polyreactivity |
| QVQLGESGGGLVQAGGSLRLSCAASGSMFYSNARGWYRQAPGTERELVASIRGSGVSTYYADSVKGRFTISRDNAKNTVYLPMNSLKPEDTAVYDCAPRYGRSYFGYYYWGQGTQVTVSS | high polyreactivity |
| QVQLGESGGGLVQAGGSLRLSCAASGSTFITYAMGLYRQAPGKERELVAAITRGGRRYYADSVKGRFTISRDNAKNTVYLQMNSLKPEDTAVYYCAARDWASHTPFDYWGQGTQVTVSS | high polyreactivity |
| QVQLGESGGGLVQAGGSLRLSCAASGSTFNIYAMGWSRQSPGNERELVAAISSCGGRTYYADSVKGRFTISLDNAKNTVYLQMNSVKPEDTAVYYCAAVRSYYRGYDYWGQGTQVTVSS | high polyreactivity |
| QVQLGESGGGLVQAGGSLRLSCAASGSTFRINAMGWYRQAPGKERELVADINSGGNTTYADSVKGRFTISRDNAKNTVYLQMNSLKPEDTAVYYCAAPRTYYSELTSPYDYCGQGTQVTVSS | low polyreactivity |
| QVQLGESGGGLVQAGGSLRLSCAASGSTFVRYAMGWYRQAPGKERELVAGISYSGGRTYYADSVKGRFTISRDNAKNTVYLQMNSLKPEDTAVYYCAAEGTTSWWVKYGYWGQGTQVTVSS | low polyreactivity |
| QVQLGESGGGLVQAGGSRRLSCAASGLIFASNAMGWYRQAPGKEREFDAAISISGGSTYYADSVKGRFTISRDNAKNTVYLQMNSLKPEDTAVYYCAAKLYTVRRPELDYWGQGTQVTVSS | low polyreactivity |
| QVQLGESGGGLVQAVGSLRLSCAASGITFVYYAMGWSRQEPGKERELVSSISSADNTNYADSVKGRFTISRDNAKNTVYLQMNSLKPEDTAVYYCAADYWWHLRHYSTGGYWGQGTQVTVSS | low polyreactivity |
| QVQLGESGGRLVQAGGSLRLSCAASGSTFPTNAMGWSRQGPGKERELVAAITSTGSTYADSVKGRYTISRDNVKNTVYLQMNSVKPEDTAVYYCAADTQWTTPYDYWGQGTQVTVSS | low polyreactivity |
| QVQLGESGVGLVQAGGSHRLSCAASGSTSPINAMGWYRQAPGKERELVAVISSSGGRTYYADSVKGRFTISRDNAKNTVYLQMNSLKPEDTAVYYCANRFSRRQPDYDYWGQGTQVTVSS | high polyreactivity |
| QVQLHESGGGLEQEGGSLRLTCEASGNISPPADMGWYRQAPRKERELVASIGTGGTTNYADIVKARFTISRDNAKNTVYLQMNSLKPDDTSVYYWAAVRYEYNPYDYWGQGTQVTVSS | low polyreactivity |
| QVQLHESGGGLLQAGGTLRLSCAASGTISYAGPMCWYRQSPGKEREFVAGIGVGSNTNYADSVKGRYTIIRDNAKNTVYLQMNSLKPEDTAVYYCAVGGFAPLGRPYWGQGTQVTVSS | low polyreactivity |
